Laboratory results taken from publication PMC11929898 (Scientific Reports, 2025).

Biological target: SMC3 (mouse (endogenous in mouse ES cells), UniProt Q9CW03 1-1217)
Assay: co-IP

SMC3, sequence (Q9CW03 whole entry): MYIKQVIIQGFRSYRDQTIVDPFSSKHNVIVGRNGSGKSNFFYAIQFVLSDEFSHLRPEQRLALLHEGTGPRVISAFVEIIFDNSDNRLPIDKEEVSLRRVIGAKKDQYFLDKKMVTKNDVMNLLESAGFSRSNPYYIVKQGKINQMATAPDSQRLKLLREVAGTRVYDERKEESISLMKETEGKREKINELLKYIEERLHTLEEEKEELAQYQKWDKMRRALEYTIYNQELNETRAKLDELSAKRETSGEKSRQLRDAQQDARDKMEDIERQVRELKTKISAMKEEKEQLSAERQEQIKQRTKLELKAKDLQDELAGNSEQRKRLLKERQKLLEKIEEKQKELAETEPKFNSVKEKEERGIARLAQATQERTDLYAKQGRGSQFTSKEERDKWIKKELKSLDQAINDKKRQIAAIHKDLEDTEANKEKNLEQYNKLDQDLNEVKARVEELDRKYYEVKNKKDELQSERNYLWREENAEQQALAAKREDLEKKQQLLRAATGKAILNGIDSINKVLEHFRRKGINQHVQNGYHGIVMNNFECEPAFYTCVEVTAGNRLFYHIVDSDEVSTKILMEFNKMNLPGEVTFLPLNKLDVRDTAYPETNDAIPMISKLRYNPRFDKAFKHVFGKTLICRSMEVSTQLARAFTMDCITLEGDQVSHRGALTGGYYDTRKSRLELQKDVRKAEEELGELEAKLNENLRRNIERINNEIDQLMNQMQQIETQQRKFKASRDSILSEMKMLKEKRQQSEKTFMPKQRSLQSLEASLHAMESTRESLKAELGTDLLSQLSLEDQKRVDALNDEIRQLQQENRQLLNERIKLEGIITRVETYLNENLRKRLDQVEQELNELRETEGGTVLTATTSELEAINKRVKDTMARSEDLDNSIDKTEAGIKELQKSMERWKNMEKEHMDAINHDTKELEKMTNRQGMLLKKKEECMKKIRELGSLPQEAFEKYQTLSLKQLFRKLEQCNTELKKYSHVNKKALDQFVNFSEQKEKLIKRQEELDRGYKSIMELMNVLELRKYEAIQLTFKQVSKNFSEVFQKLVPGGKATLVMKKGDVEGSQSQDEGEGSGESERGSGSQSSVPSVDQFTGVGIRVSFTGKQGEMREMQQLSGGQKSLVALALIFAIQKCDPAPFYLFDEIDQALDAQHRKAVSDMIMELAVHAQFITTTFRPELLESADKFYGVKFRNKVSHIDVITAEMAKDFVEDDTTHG

- fold change of co-IP with siRad21 against siCtrl: 1.92 fold
B1: REC8 (natural protein)
chain: MFYYPNVLQRHTGCFATIWLAATRGSRLVKREYLNVNVVKTCEEILNYVLVRVQPPVAGLPRPRFSLYLSAQLQIGVIRVYFQQCQYLVEDIQHILEHLHRAQLRIRIDMEEADLPSLLLPNCLAMMETLEDAPEPFFGKMSVDPRLPSPFDIPQIRHLLEAATPEKTRKETLPEATPDPRKPDRTLATVQSPEVITLQEAEPIRMLQIEGEQDLPEISRGDLELLIAEKDDAILLEERQRGRLLRQRRASLPLDESREEPRALEGAGLVSALSPPAPAQVEGIQEALPGQVFPPEVQKMTGWEPGALLTEVTPPQELRLPAPPSTEKRLPSLQRPLPRRHRRRQLLFWDKETQISREKFEEQLQTGAHCWEYPVAQPPKRMLTSPAELFRTPTLSGWLPPELLGLWTHCAQVPQRMLRQRPQLETEETVEEERAADEEERRKTEALSEIEVLREAQEPSGPLMLSSELSLEAAEDEKSRTSLIPPEWWAWSEEGQPEPPALPMLPELPEVPMEMPPRPELSSEAVLRAVALKLQANKELDFSSLVPPLSPRKLASRVFYLLLVLSTQKILLVEQQKPYGPLLIRPGPKFP
